From article PMC2213439 come the findings set out here.

Holding throughout (assay): cell adhesion assay
For experiment [1], the target named is E-cadherin-Fc K28A (human).
The target of experiment [2] is E-cadherin-Fc N27A (human).
In experiment [3] the target is E-cadherin-Fc K30A (human).
For experiment [4], the target named is E-cadherin-Fc E56A (human).
The target of experiment [5] is E-cadherin-Fc N86A (human).
Experiment [6] has as its target E-cadherin-Fc D44A (human).
Experiment [7] concerns the target E-cadherin-Fc K33A (human).
Experiment [8] deals with E-cadherin-Fc S83A (human) (UniProt P12830).
In experiment [9] the target is E-cadherin-Fc E89A (human).
Experiment [10] deals with E-cadherin-Fc E31A (human).
Experiment [11] concerns the target E-cadherin-Fc K25A (human).
Experiment [12] addresses E-cadherin-Fc E31D (human).
Experiment [13] addresses Purified human IgG1 (human).
For experiment [14], the target named is E-cadherin-Fc KEG30-32RDT (human) (UniProt P12830).

For “E-cadherin on MCF-7 human breast epithelial cells (from UniProt P12830 155-882) (natural protein)”, the adhesion as percent of wild type (% of wild-type) stood at 94 in experiment [1]; 62 in [2]; 99 in experiment [3]; 90 in experiment [4]; 93 in experiment [5]; 94 in experiment [6]. In addition, the adhesion as percent of wild type (% of wild-type) worked out at 91 in experiment [7], 105 in [8], 2 in experiment [9] and 76 in experiment [11]. The percent of cells bound in experiment [10] and in [12] was 41% each time.
Turning to “Integrin αEβ7 on K562 transfectants (K562-αEβ7) (from UniProt P38570 19-1179; P26010 20-798) (complex)”, the adhesion as percent of wild type (% of adhesion to wild-type) stood at 79 in experiment [1]; 57 in experiment [2]; 53 in experiment [3]; 102 in [4]; 86 in experiment [5]; 105 in [6]. Further, the adhesion as percent of wild type (% of adhesion to wild-type) in experiment [7] was found to be 104; in [8] it was 80; in [11], 87. The percent of cells bound in experiment [13] was < 1%.
Regarding “Integrin αEβ7 on human IEL-496 T cells (from UniProt P38570 19-1179; P26010 20-798) (complex)”, the adhesion as percent of wild type (% of wild-type) in [1], in [2], in experiment [3], in experiment [4], in experiment [5] and in experiment [6] was > 82 throughout. Besides, the adhesion as percent of wild type (% of wild-type) was > 82 in [7]; < 2 in [14]; > 82 in experiment [8]; 20 in experiment [9]; < 2 in [10]; > 82 in experiment [11]. Further, the adhesion as percent of wild type (% of wild-type) in experiment [12] was < 2. In addition, the percent of cells bound in experiment [1] amounted to 58%; in experiment [2] it was 58%; in [3], 58%; in experiment [4] it was 60%; in [5] it was 57%; in experiment [6] it was 59%. The percent of cells bound came to 60% in experiment [7], 68% in [8], 12% in experiment [9] and 69% in [11].
